Experimental data: US20070149456A1, “Epithelial sodium channel inhibiting agents and uses therefor” (University of Pittsburgh, priority 2005, published 2007)
Entries after “also recorded” stand apart in the source; their conditions may differ.

What was measured:
[1] = molecular target: T1, endogenous ENaC in HAE cells (Homo sapiens, UniProt P37088+P51168+P51170); assay: Amiloride-sensitive short circuit current in primary human airway epithelial (HAE) cell monolayers, Ussing chamber; assay type: cell-based; settings: HAE
T1 construct: endogenous in cells; host or cells: primary human airway (bronchial) epithelial cells from transplant or donor lungs
From the text: Primary Cultures of HAE Cells—HAE cells were obtained from excess pathological tissue remaining after lung transplantation or from organ donor lungs deemed not suitable for transplantation under a protocol approved by the University of Pittsburgh […] Review Board. All cells were isolated from second through sixth generation bronchi and grown on permeable Transwell supports (Coming Inc.) as previously described (Devor, D. C., and Pilewski, J. M. (1999), UTP inhibits Na^+ absorption in wild-type and DeltaF508 CFTR-expressing human bronchial epithelia, Am. J. Physiol. 276, C827-C837 31. ).
(§1) Short Circuit Current Measurements—Cell culture inserts were mounted in modified Ussing chambers (Harvard Apparatus, Holliston, Mass.), and the monolayers were continuously short-circuited with a voltage/current clamp system (Physiologic Instruments, San Diego, Calif.). A 2-mV bipolar pulse was applied periodically to measure the resistance of the monolayer. As previously described by Bridges et al. (Bridges, R. J., Newton, B. B., Pilewski, J. M., Devor, D. C., Poll, C. T., and Hall, R. L. (2001), Na+ transport in normal and CF human bronchial epithelial cells is inhibited by BAY 39-9437, Am. J. Physiol. 281, L16-L23 32, Na^+ transport in normal and CF human bronchial epithelial cells is inhibited by BAY 39-9437), the bath solution contained (in mM) 120 NaCl, 25 NaHCO3, 3.3 KH2PO4, 0.8 K2HPO4, 1.2 MgCl2, 1.2 CaCl2, and 10 glucose. The pH of this solution was 7.4 when gassed with a mixture of 95% O2-5% CO2 at 37° C.
Primary cultures of HAE cells grown on permeable membrane supports and mounted in modified Ussing chambers were continuously short-circuited by a voltage clamp amplifier (Physiologic Instruments, San Diego, Calif.). Monolayers were exposed to increasing concentrations of either the γ-peptide (closed circles) or a scrambled peptide (open circles). […] (n=8-9).
Vectors and Cell Culture—Wild-type, C-terminal and double epitope tagged mouse ENaC subunit cDNAs were previously described (Hughey, R. P., Mueller, G. M., Bruns, J. B., Kinlough, C. L., Poland, P. A., Harkleroad, K. L., Carattino, M. D., and Kleyman, T. R. (2003) J Biol Chem 278, 37073-37082 and Ahn, Y. J., Brooker, D. R., Kosari, F., Harte, B. J., Li, J., Mackler, S. A., and Kleyman, T. R. (1999), Cloning and functional expression of the mouse epithelial sodium channel, Am J Physiol 277, F121-129). The γ subunit mutations were generated in pcDNA3.1 (+) using a standard two-step PCR method. A cDNA clone (IMAGE #: 3600399) encoding full length mouse prostasin was obtained from Open Biosystems (Huntsville, Ala.) and sub-cloned into pcDNA3.1 (+) (Invitrogen, Carlsbad, Calif.). MDCK type 1 cells were a gift from Barry M. Gumbiner (Memorial Sloan-Kettering Cancer Center, New York) and were cultured as previously described (Lavelle, J. P., Negrete, H. O., Poland, P. A., Kinlough, C. L., Meyers, S. D., Hughey, R. P., and Zeidel, M. L. (1997), Low permeabilities of MDCK cell monolayers: a model barrier epithelium, Am J Physiol 273, F67-75). CCD (mpkCCDc14) cells were a gift from Alain Vandewalle (Institut National de la Santéet de la Recherche Médicale, Paris, France) and were cultured as previously described (Bens, M., Vallet, V., Cluzeaud, F., Pascual-Letallec, L., Kahn, A., Rafestin-Oblin, M. E., Rossier, B. C., and Vandewalle, A. (1999) J Am Soc Nephrol 10, 923-934). HAE cells were isolated and cultured as described (Devor, D. C., Bridges, R. J., and Pilewski, J. M. (2000), Pharmacological modulation of ion transport across wild-type and DeltaF508 CFTR-expressing human bronchial epithelia, Am J Physiol Cell Physiol 279, C461-479). […]

[2] = molecular target: T2, endogenous ENaC in mpkCCDc14 cells (Mus musculus, UniProt Q61180+Q9WU38+Q9WU39); assay: Amiloride-sensitive short circuit current in mpkCCDc14 monolayers, Ussing chamber; assay type: cell-based; settings: mpkCCDc14, increasing concentrations of peptide
T2 construct: endogenous ENaC in a mouse cortical collecting duct (mpkCCDc14) cell line; endogenous in cells; host or cells: mpkCCDc14 mouse cortical collecting duct cell line
Description: mpkCCDc14 Cell Culture—mpkCCDc14 cells were grown as previously reported (Bens, M., Vallet, V., Cluzeaud, F., Pascual-Letallec, L., Kahn, A., Rafestin-Oblin, M. E., Rossier, B. C., and Vandewalle, A. (1999), Corticosteroid-dependent sodium transport in a novel immortalized mouse collecting duct principal cell line, J. Am. Soc. Nephrol. 10, 923-934). mpkCCDc14 cells were subcultured onto permeable filter supports coated with collagen (0.4-μm pore size, 1-cm^2 surface area, Snapwell filters; Coming Inc., Acton, Mass.). Cells were kept on filters for at least 4 days in defined medium (Bens, M., Vallet, V., Cluzeaud, F., Pascual-Letallec, L., Kahn, A., Rafestin-Oblin, M. E., Rossier, B. C., and Vandewalle, A. (1999) J. Am. Soc. Nephrol. 10, 923-934 30) that was changed every second day. At least 24 h prior to the experiments, the culture medium was replaced with a minimal medium (without drugs or hormones) that contained only Dulbecco's modified Eagle's medium and Ham's F-12.
as §1
(FIG. 6A) mpkCCDc14cells cultured on permeable membrane supports and mounted in a modified Ussing chamber were continuously short-circuited by a voltage clamp amplifier (Physiologic Instruments, San Diego, Calif.). Transepithelial resistance was monitored by applying a 4 mV bipolar pulse every 60 seconds. Where indicated, a 43 residue peptide corresponding to E144-K186 of mouse γ-ENaC (γ-peptide) was added to the apical chamber at a final concentration of 3 μM. […] Data presented as mean +/−standard error (n=8).
Vectors and Cell Culture—Wild-type, C-terminal and double epitope tagged mouse ENaC subunit cDNAs were previously described (Hughey, R. P., Mueller, G. M., Bruns, J. B., Kinlough, C. L., Poland, P. A., Harkleroad, K. L., Carattino, M. D., and Kleyman, T. R. (2003) J Biol Chem 278, 37073-37082 and Ahn, Y. J., Brooker, D. R., Kosari, F., Harte, B. J., Li, J., Mackler, S. A., and Kleyman, T. R. (1999), Cloning and functional expression of the mouse epithelial sodium channel, Am J Physiol 277, F121-129). The γ subunit mutations were generated in pcDNA3.1 (+) using a standard two-step PCR method. A cDNA clone (IMAGE #: 3600399) encoding full length mouse prostasin was obtained from Open Biosystems (Huntsville, Ala.) and sub-cloned into pcDNA3.1 (+) (Invitrogen, Carlsbad, Calif.). MDCK type 1 cells were a gift from Barry M. Gumbiner (Memorial Sloan-Kettering Cancer Center, New York) and were cultured as previously described (Lavelle, J. P., Negrete, H. O., Poland, P. A., Kinlough, C. L., Meyers, S. D., Hughey, R. P., and Zeidel, M. L. (1997), Low permeabilities of MDCK cell monolayers: a model barrier epithelium, Am J Physiol 273, F67-75). CCD (mpkCCDc14) cells were a gift from Alain Vandewalle (Institut National de la Santéet de la Recherche Médicale, Paris, France) and were cultured as previously described (Bens, M., Vallet, V., Cluzeaud, F., Pascual-Letallec, L., Kahn, A., Rafestin-Oblin, M. E., Rossier, B. C., and Vandewalle, A. (1999) J Am Soc Nephrol 10, 923-934).

[3] = molecular target: T2, endogenous ENaC in mpkCCDc14 cells; assay: as above; assay type: cell-based; settings: peptide 50 μM
[4] = molecular target: endogenous ENaC in primary cultures of human airway epithelial (HAE) cells (human, UniProt P51168 1-640); assay: cell-based or functional assay
Chain of endogenous ENaC in primary cultures of human airway epithelial (HAE) cells (chain, as listed by the source, chain 1 of 3): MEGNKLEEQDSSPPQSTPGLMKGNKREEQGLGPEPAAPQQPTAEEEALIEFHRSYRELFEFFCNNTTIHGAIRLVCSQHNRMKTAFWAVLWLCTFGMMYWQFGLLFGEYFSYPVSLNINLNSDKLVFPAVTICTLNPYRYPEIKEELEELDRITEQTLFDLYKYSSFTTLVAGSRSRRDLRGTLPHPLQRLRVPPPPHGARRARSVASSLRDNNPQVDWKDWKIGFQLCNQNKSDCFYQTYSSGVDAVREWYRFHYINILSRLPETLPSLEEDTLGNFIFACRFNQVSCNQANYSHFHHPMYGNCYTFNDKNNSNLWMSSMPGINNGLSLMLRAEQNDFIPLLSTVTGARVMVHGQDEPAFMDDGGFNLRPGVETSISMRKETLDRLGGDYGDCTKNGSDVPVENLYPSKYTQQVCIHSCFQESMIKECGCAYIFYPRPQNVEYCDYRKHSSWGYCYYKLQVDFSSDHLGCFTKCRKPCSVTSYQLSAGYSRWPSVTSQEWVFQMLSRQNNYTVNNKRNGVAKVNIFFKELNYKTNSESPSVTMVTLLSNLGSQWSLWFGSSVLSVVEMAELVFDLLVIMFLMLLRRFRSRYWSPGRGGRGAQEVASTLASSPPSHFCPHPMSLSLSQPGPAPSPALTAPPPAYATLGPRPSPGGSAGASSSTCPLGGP
Chain of endogenous ENaC in primary cultures of human airway epithelial (HAE) cells (P51168 whole entry, chain 2 of 3): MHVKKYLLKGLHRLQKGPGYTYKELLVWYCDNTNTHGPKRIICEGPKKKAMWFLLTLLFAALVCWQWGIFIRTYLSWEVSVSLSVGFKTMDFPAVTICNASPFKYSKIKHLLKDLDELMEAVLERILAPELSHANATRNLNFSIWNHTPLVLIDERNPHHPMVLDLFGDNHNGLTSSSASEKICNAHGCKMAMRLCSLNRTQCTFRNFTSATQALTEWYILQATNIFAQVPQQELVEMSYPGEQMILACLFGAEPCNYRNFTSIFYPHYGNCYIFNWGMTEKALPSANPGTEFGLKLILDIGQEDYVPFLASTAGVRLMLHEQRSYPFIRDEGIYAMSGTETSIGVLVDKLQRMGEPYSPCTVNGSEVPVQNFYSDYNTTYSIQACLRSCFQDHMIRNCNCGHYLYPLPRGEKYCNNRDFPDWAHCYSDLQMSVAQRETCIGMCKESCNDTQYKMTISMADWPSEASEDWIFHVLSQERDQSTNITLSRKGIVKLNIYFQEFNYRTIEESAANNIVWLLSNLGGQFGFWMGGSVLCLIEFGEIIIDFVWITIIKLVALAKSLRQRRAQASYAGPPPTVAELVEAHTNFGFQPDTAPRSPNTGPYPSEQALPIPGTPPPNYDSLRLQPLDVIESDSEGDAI
Chain of endogenous ENaC in primary cultures of human airway epithelial (HAE) cells (chain, as listed by the source, chain 3 of 3): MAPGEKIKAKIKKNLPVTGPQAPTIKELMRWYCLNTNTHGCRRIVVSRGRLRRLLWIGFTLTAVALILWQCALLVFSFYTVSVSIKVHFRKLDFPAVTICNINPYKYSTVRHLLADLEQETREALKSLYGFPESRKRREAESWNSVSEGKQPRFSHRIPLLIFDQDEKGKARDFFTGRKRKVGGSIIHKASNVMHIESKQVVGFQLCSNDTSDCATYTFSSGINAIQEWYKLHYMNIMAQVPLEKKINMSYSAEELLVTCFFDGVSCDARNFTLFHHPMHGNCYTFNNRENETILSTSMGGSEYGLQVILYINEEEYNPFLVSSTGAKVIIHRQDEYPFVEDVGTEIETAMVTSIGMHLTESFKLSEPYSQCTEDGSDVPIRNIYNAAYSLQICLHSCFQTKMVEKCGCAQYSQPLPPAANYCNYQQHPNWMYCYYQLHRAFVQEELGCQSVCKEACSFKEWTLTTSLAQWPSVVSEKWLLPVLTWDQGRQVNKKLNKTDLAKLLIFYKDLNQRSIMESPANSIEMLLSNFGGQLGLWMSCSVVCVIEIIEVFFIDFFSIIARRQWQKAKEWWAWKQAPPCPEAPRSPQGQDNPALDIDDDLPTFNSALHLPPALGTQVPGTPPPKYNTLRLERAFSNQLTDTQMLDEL

[5] = molecular target: endogenous ENaC in the mouse cortical collecting duct cell line mpkCCDc14 (mouse, UniProt Q9WU38 1-638); assay: cell-based or functional assay
Chain of endogenous ENaC in the mouse cortical collecting duct cell line mpkCCDc14 (chain, as listed by the source, chain 1 of 3): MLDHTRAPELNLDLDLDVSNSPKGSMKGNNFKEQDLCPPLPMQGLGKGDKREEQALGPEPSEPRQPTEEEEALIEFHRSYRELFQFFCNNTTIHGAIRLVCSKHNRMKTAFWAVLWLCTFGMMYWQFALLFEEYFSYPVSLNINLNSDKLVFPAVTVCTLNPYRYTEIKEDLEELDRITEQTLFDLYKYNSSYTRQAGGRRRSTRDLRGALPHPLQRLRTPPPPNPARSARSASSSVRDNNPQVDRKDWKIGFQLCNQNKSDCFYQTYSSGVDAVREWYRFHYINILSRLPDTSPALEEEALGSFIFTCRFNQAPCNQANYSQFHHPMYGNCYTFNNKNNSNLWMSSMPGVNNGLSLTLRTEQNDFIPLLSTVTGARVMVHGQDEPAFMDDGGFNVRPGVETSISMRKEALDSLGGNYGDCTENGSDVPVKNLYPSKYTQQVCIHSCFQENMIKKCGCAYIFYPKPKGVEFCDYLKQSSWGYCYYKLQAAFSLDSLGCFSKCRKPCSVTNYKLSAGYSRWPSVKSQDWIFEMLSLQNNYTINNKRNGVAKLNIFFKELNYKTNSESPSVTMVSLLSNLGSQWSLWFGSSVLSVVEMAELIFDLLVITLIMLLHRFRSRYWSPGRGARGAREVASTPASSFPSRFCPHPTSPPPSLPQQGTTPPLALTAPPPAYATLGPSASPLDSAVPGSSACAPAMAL
Chain of endogenous ENaC in the mouse cortical collecting duct cell line mpkCCDc14 (Q9WU38 whole entry, chain 2 of 3): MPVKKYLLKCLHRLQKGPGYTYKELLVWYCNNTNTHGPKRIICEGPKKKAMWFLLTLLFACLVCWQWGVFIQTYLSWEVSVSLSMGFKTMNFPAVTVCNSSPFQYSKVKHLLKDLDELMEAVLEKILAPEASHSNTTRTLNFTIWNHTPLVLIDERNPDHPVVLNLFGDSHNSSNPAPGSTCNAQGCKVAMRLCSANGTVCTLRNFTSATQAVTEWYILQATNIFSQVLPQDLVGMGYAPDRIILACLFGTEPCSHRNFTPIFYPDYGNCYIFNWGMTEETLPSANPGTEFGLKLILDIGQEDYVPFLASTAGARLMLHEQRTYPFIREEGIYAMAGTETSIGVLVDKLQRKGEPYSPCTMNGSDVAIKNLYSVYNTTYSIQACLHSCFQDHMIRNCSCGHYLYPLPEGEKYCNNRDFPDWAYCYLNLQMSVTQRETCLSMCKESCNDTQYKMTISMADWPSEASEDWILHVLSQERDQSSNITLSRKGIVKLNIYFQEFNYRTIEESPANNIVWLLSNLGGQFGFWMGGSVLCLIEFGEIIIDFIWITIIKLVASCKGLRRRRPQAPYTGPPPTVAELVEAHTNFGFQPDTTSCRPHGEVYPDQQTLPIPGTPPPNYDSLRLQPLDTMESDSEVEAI
Chain of endogenous ENaC in the mouse cortical collecting duct cell line mpkCCDc14 (chain, as listed by the source, chain 3 of 3): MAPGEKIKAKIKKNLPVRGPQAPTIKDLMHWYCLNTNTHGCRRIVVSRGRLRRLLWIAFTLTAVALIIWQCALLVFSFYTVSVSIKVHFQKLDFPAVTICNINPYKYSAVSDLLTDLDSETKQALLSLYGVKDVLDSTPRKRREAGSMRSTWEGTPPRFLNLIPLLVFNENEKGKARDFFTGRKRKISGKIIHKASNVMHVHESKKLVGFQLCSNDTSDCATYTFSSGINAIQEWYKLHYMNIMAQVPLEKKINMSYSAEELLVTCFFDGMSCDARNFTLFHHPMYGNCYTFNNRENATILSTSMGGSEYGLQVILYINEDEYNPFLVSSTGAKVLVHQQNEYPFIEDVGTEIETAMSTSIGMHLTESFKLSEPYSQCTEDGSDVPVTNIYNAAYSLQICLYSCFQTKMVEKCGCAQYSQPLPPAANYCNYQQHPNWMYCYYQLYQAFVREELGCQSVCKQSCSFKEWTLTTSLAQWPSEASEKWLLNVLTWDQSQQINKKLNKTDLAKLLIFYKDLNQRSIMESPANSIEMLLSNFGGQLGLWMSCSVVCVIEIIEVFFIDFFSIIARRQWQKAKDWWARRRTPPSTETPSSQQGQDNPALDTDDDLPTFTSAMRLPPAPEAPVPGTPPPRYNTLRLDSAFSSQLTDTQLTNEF

[6] = molecular target: wild-type αβγ mouse epithelial sodium channel (ENaC) expressed in Xenopus oocytes (mouse, UniProt Q9WU38 1-638); assay: cell-based or functional assay
Chain of wild-type αβγ mouse epithelial sodium channel (ENaC) expressed in Xenopus oocytes (Q9WU38 whole entry, chain 2 of 3): as the sequence (Q9WU38 whole entry, chain 2 of 3) above

Molecule: FKGFVGKEALREILTFWLRFNNTEMDSKPLRTRANPPSKGGRE (Ac-FKGFVGKEALREILTFWLRFNNTEMDSKPLRTRANPPSKGGRE-NH2) [scrambled peptide, reference compound]
- inhibition of amiloride sensitive short circuit currents ([1]; increasing concentrations of peptide): minimal effect; also recorded: failed to inhibit; also recorded: only a slight inhibition
- inhibition of amiloride sensitive short circuit currents [2]: minimal effect; also recorded: failed to inhibit

Molecule: PLTQPRPRLADHNPLSARRRPLPAGP (Ac-PLTQPRPRLADHNPLSARRRPLPAGP-NH2) [SCR, reference compound]
- inhibition of Isc ([1]; peptide 50 μM): did not inhibit
- inhibition of Isc [3]: did not inhibit

B1: α-26, synthetic 26-mer peptide representing the tract Asp206-Arg231 released from the mouse ENaC α subunit by furin cleavage (peptide)
peptide: Ac-DLRGALPHPLQRLRTPPPPNPARSAR-NH2
- IC50, inhibition of amiloride-sensitive short circuit current (Isc) in HAE monolayers (FIG. 5A) [4]: 46000 nM
- IC50, inhibition of amiloride-sensitive short circuit current (Isc) in mpkCCDc14 monolayers (FIG. 5B) [5]: 100000 nM
- IC50, inhibition of amiloride-sensitive whole cell Na+ current in oocytes, holding potential -20 mV [6]: 2900 nM
- IC50, inhibition of amiloride-sensitive whole cell Na+ current in oocytes, holding potential -100 mV [6]: 2900 nM
- IC50, inhibition of amiloride-sensitive whole cell Na+ current, two-electrode voltage clamp in Xenopus oocytes (FIG. 3A; holding potential -60 mV, value repeated in the same paragraph) [6]: 2800 nM

B2: 8-residue fragment LPHPLQRL of α-26 (peptide)
peptide: LPHPLQRL
- IC50, inhibition of mouse ENaCs expressed in oocytes [6]: ~1000 nM

B3: γ-43, synthetic 43-residue peptide corresponding to the tract Glu144-Lys186 of mouse γ ENaC (peptide)
peptide: Ac-EAGSMRSTWEGTPPRFLNLIPLLVFNENEKGKARDFFTGRKRK-NH2
- IC50, inhibition of amiloride sensitive short circuit currents in primary HAE cells (FIG. 7) [4]: 1900 nM
- IC50, inhibition of short circuit currents in primary cultures of HAE cells (FIG. 18C) [4]: 2000 nM
- IC50, inhibition of amiloride sensitive short circuit currents in mpkCCDc14 cells (FIG. 6B) [5]: 3200 nM
- IC50, inhibition of short circuit currents in mouse CCD cells (FIG. 18B) [5]: 3200 nM
